From publication PMC11328874 (2024)

Molecular target: T1, FLAG-Eya3 (human), wild type, Q99504
T1 chain: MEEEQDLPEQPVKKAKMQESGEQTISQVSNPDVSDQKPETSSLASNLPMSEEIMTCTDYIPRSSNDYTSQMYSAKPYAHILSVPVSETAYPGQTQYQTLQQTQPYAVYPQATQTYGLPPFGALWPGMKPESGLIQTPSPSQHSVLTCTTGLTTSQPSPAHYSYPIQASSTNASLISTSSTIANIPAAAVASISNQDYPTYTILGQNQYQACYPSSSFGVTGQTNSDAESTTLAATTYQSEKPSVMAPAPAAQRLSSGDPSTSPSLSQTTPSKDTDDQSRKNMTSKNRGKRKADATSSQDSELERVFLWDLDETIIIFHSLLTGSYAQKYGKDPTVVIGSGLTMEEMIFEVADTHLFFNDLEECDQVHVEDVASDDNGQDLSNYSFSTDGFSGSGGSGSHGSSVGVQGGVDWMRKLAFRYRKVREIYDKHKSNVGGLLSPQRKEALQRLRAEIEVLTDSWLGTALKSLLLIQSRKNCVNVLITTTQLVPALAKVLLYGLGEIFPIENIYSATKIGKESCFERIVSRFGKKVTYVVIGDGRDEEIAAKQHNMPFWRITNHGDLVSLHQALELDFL
Test: FLAG co-IP followed by Western blot, band quantification
Conditions: chain shown with the change; cotransfected HEK cells; three biological replicates; parent: est. 1.0; read off a plot

ratio to parent: 0.58
B1: HA-tagged B55α (HA-B55α), wild type, P63151 F84-L90/GG (protein)
chain: MAGAGGGNDIQWCFSQVKGAVDDDVAEADIISTVEFNHSGELLATGDKGGRVVIFQQEQENKIQSHSRGEYNVYSTFQSHEPEGGEIEEKINKIRWLPQKNAAQFLLSTNDKTIKLWKISERDKRPEGYNLKEEDGRYRDPTTVTTLRVPVFRPMDLMVEASPRRIFANAHTYHINSISINSDYETYLSADDLRINLWHLEITDRSFNIVDIKPANMEELTEVITAAEFHPNSCNTFVYSSSKGTIRLCDMRASALCDRHSKLFEEPEDPSNRSFFSEIISSISDVKFSHSGRYMMTRDYLSVKIWDLNMENRPVETYQVHEYLRSKLCSLYENDCIFDKFECCWNGSDSVVMTGSYNNFFRMFDRNTKRDITLEASRENNKPRTVLKPRKVCASGKRKKDEISVDSLDFNKKILHTAWHPKENIIAVATTNNLYIFQDKVN
